Laboratory results: paper PMC3026072

Tests used:
[1] = anti-GFP Western band intensity, CHO membranes; settings: glycan lost; control: wild-type OCTN2
[2] = confocal GFP vs Bodipy-ceramide, MetaMorph; settings: glycan lost; control: wild-type OCTN2
[3] = carnitine 0.5–100 µM uptake, Michaelis-Menten fit, CHO; settings: glycan lost; control: wild-type OCTN2
[4] = Michaelis-Menten kinetics after 16 h tunicamycin, CHO; settings: glycan lost; control: untreated cells

| Protein | expression_or_secretion [1] | localisation_or_trafficking, other: percent of transporters at plasma membrane [2] | other: Vmax of carnitine transport [3] | other: kinetic parameters of carnitine transport [4] |
| --- | --- | --- | --- | --- |
| OCTN2 carnitine transporter: N57/64/91Q (protein) parent chain: MRDYDEVTAFLGEWGPFQRLIFFLLSASIIPNGFTGLSSVFLIATPEHRCRVPDAANLSSAWRNHTVPLRLRDGREVPHSCRRYRLATIANFSALGLEPGRDVDLGQLEQESCLDGWEFSQDVYLSTIVTEWNLVCEDDWKAPLTISLFFVGVLLGSFISGQLSDRFGRKNVLFVTMGMQTGFSFLQIFSKNFEMFVVLFVLVGMGQISNYVAAFVLGTEILGKSVRIIFSTLGVCIFYAFGYMVLPLFAYFIRDWRMLLVALTMPGVLCVALWWFIPESPRWLISQGRFEEAEVIIRKAAKANGIVVPSTIFDPSELQDLSSKKQQSHNILDLLRTWNIRMVTIMSIMLWMTISVGYFGLSLDTPNLHGDIFVNCFLSAMVEVPAYVLAWLLLQYLPRRYSMATALFLGGSVLLFMQLVPPDLYYLATVLVMVGKFGVTAAFSMVYVYTAELYPTVVRNMGVGVSSTASRLGSILSPYFVYLGAYDRFLPYILMGSLTILTAILTLFLPESFGTPLPDTIDQMLRVKGMKHRKTPSHTRMLKDGQERPTILKSTAF | decreases | abolishes | – | – |
| OCTN2 carnitine transporter: N57Q/N64Q (protein) parent chain: MRDYDEVTAFLGEWGPFQRLIFFLLSASIIPNGFTGLSSVFLIATPEHRCRVPDAANLSSAWRNHTVPLRLRDGREVPHSCRRYRLATIANFSALGLEPGRDVDLGQLEQESCLDGWEFSQDVYLSTIVTEWNLVCEDDWKAPLTISLFFVGVLLGSFISGQLSDRFGRKNVLFVTMGMQTGFSFLQIFSKNFEMFVVLFVLVGMGQISNYVAAFVLGTEILGKSVRIIFSTLGVCIFYAFGYMVLPLFAYFIRDWRMLLVALTMPGVLCVALWWFIPESPRWLISQGRFEEAEVIIRKAAKANGIVVPSTIFDPSELQDLSSKKQQSHNILDLLRTWNIRMVTIMSIMLWMTISVGYFGLSLDTPNLHGDIFVNCFLSAMVEVPAYVLAWLLLQYLPRRYSMATALFLGGSVLLFMQLVPPDLYYLATVLVMVGKFGVTAAFSMVYVYTAELYPTVVRNMGVGVSSTASRLGSILSPYFVYLGAYDRFLPYILMGSLTILTAILTLFLPESFGTPLPDTIDQMLRVKGMKHRKTPSHTRMLKDGQERPTILKSTAF | no change | – | – | – |
| OCTN2 carnitine transporter: N57/91Q (protein) parent chain: MRDYDEVTAFLGEWGPFQRLIFFLLSASIIPNGFTGLSSVFLIATPEHRCRVPDAANLSSAWRNHTVPLRLRDGREVPHSCRRYRLATIANFSALGLEPGRDVDLGQLEQESCLDGWEFSQDVYLSTIVTEWNLVCEDDWKAPLTISLFFVGVLLGSFISGQLSDRFGRKNVLFVTMGMQTGFSFLQIFSKNFEMFVVLFVLVGMGQISNYVAAFVLGTEILGKSVRIIFSTLGVCIFYAFGYMVLPLFAYFIRDWRMLLVALTMPGVLCVALWWFIPESPRWLISQGRFEEAEVIIRKAAKANGIVVPSTIFDPSELQDLSSKKQQSHNILDLLRTWNIRMVTIMSIMLWMTISVGYFGLSLDTPNLHGDIFVNCFLSAMVEVPAYVLAWLLLQYLPRRYSMATALFLGGSVLLFMQLVPPDLYYLATVLVMVGKFGVTAAFSMVYVYTAELYPTVVRNMGVGVSSTASRLGSILSPYFVYLGAYDRFLPYILMGSLTILTAILTLFLPESFGTPLPDTIDQMLRVKGMKHRKTPSHTRMLKDGQERPTILKSTAF | – | decreases | – | – |
| OCTN2 carnitine transporter: N64/91Q (protein) parent chain: MRDYDEVTAFLGEWGPFQRLIFFLLSASIIPNGFTGLSSVFLIATPEHRCRVPDAANLSSAWRNHTVPLRLRDGREVPHSCRRYRLATIANFSALGLEPGRDVDLGQLEQESCLDGWEFSQDVYLSTIVTEWNLVCEDDWKAPLTISLFFVGVLLGSFISGQLSDRFGRKNVLFVTMGMQTGFSFLQIFSKNFEMFVVLFVLVGMGQISNYVAAFVLGTEILGKSVRIIFSTLGVCIFYAFGYMVLPLFAYFIRDWRMLLVALTMPGVLCVALWWFIPESPRWLISQGRFEEAEVIIRKAAKANGIVVPSTIFDPSELQDLSSKKQQSHNILDLLRTWNIRMVTIMSIMLWMTISVGYFGLSLDTPNLHGDIFVNCFLSAMVEVPAYVLAWLLLQYLPRRYSMATALFLGGSVLLFMQLVPPDLYYLATVLVMVGKFGVTAAFSMVYVYTAELYPTVVRNMGVGVSSTASRLGSILSPYFVYLGAYDRFLPYILMGSLTILTAILTLFLPESFGTPLPDTIDQMLRVKGMKHRKTPSHTRMLKDGQERPTILKSTAF | decreases | decreases | decreases | – |
| OCTN2 carnitine transporter: tunicamycin (0.5 µg/ml) (protein) parent chain: MRDYDEVTAFLGEWGPFQRLIFFLLSASIIPNGFTGLSSVFLIATPEHRCRVPDAANLSSAWRNHTVPLRLRDGREVPHSCRRYRLATIANFSALGLEPGRDVDLGQLEQESCLDGWEFSQDVYLSTIVTEWNLVCEDDWKAPLTISLFFVGVLLGSFISGQLSDRFGRKNVLFVTMGMQTGFSFLQIFSKNFEMFVVLFVLVGMGQISNYVAAFVLGTEILGKSVRIIFSTLGVCIFYAFGYMVLPLFAYFIRDWRMLLVALTMPGVLCVALWWFIPESPRWLISQGRFEEAEVIIRKAAKANGIVVPSTIFDPSELQDLSSKKQQSHNILDLLRTWNIRMVTIMSIMLWMTISVGYFGLSLDTPNLHGDIFVNCFLSAMVEVPAYVLAWLLLQYLPRRYSMATALFLGGSVLLFMQLVPPDLYYLATVLVMVGKFGVTAAFSMVYVYTAELYPTVVRNMGVGVSSTASRLGSILSPYFVYLGAYDRFLPYILMGSLTILTAILTLFLPESFGTPLPDTIDQMLRVKGMKHRKTPSHTRMLKDGQERPTILKSTAF | – | – | – | no change |
